Laboratory results published in US20260193352A1 (published 2026).

Target: T1, cynomolgus monkey PD-1 Fc fusion (cynomolgus monkey, UniProt B0LAJ3 25-170)
T1 construct: also called Cyno PD-1
Test: SPR

T1 sequence (B0LAJ3 entry or part of it limits assumed, form in doubt): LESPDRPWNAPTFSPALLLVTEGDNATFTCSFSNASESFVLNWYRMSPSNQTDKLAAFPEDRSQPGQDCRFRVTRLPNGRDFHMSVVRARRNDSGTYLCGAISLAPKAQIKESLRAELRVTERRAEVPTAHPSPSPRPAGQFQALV

B1: PD-1-binding agent (comprising SEQ ID NOs: 1 and 2) (antibody, V domains shown)
VH: EVQLLESGGGLVQPGGSLRLSCAASGFTFSSYDMSWVRQAPGKGLEWVSTISGGGSYTYYQDSVKGRFTISRDNSKNTLYLQMNSLRAEDTAVYYCASPYYAMDYWGQGTTVTVSS
VL: DIQLTQSPSFLSAYVGDRVTITCKASQDVGTAVAWYQQKPGKAPKLLIYWASTLHTGVPSRFSGSGSGTEFTLTISSLQPEDFATYYCQHYSSYPWTFGQGTKLEIKR
fold difference in KD (cynomolgus monkey PD-1 against human PD-1): < 2 fold
